Results reported in PMC7353165 (Molecular Biology of the Cell, 2020).

Biological target: T1, WT-EphB1-YFP (mouse EphB1 C-terminal YFP-tagged) (mouse, UniProt Q8CBF3 18-984)
T1 sequence (looked up): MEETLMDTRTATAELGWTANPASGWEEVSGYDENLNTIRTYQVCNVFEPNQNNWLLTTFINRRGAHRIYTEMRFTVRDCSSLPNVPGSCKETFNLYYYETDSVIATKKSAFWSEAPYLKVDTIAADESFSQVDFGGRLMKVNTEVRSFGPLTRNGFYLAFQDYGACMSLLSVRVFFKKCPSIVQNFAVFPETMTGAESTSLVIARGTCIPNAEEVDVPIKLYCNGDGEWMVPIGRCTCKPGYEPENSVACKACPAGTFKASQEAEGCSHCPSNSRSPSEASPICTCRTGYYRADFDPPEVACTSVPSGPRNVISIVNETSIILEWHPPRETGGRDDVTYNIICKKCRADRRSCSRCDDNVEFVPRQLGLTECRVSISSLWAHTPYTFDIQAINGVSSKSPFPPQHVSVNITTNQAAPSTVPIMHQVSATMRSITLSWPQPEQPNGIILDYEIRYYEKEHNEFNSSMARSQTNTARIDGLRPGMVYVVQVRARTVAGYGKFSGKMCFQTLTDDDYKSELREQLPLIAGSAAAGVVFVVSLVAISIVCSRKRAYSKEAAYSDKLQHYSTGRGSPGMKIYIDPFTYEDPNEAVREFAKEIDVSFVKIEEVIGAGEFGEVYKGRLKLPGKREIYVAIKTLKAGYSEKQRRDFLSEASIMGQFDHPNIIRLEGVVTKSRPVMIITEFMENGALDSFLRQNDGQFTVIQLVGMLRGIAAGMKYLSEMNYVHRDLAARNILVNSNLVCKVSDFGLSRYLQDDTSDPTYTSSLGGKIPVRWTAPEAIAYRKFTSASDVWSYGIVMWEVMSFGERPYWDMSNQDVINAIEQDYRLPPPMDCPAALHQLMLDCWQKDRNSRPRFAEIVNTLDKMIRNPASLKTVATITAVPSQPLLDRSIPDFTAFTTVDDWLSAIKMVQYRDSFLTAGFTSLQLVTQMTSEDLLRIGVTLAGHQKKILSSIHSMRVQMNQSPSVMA
Experiment: FRET or BRET

fold FRET intensity against EphB1^∆808-815-YFP with WT-Cav-1-CFP: 4 fold
B1: WT-Cav-1-CFP (C-terminal CFP-tagged Cav-1) (natural protein, UniProt Q03135 1-178, looked up)
chain: MSGGKYVDSEGHLYTVPIREQGNIYKPNNKAMADELSEKQVYDAHTKEIDLVNRDPKHLNDDVVKIDFEDVIAEPEGTHSFDGIWKASFTTFTVTKYWFYRLLSALFGIPMALIWGIYFAILSFLHIWAVVPCIKSFLIEIQCISRVYSIYVHTVCDPLFEAVGKIFSNVRINLQKEI
